Molecular target: T1, 3×Flag−His6−ATG9A (purified) (UniProt Q7Z3C6 1-839)
T1 construct: ATG9A; also called Flag−ATG9A; 3×Flag−ATG9A
T1 sequence (looked up): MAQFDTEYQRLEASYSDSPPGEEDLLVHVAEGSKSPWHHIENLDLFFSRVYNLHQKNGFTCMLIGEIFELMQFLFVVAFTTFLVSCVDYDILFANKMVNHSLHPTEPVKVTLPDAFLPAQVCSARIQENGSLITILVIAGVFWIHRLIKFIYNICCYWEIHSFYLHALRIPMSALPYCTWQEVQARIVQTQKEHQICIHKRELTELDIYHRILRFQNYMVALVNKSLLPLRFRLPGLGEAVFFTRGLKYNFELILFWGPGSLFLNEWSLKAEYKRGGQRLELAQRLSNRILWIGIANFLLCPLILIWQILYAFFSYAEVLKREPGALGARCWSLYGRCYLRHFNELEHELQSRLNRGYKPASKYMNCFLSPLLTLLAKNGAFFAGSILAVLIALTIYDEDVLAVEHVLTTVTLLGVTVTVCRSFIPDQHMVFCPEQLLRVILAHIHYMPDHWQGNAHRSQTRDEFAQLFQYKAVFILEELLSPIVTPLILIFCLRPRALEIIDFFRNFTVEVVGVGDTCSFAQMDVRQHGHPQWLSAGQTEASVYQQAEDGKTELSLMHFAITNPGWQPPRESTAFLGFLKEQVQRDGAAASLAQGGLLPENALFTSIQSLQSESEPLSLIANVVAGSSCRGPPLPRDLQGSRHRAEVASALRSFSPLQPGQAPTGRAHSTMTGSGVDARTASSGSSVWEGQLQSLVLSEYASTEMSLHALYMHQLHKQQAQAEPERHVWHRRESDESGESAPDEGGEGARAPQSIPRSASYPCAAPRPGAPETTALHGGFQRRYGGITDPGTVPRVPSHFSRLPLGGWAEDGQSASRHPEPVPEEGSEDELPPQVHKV
Assay: co-IP; in vitro IP: 100 μg purified 3×Flag−GFP−VPS13A fragment 4 mixed with 10 μg purified ATG9A at 4°C in 0.002% LMNG:CHS (5:1), GFP-Trap beads, four washes with VPS13 buffer with detergent; immunoblot
Conditions: both partners purified

binding result: binds
B1: 3×Flag−eGFP−VPS13A fragment 4 (purified) (domain or fragment, human, UniProt Q96RL7 2554-3174, looked up)
chain: VVWETKPKKKARWKPMSVKHTEKLEREFKEYTESSPSEDKVIQLDTNVPVRLTPTGHNMKILQPHVIALRRNYLPALKVEYNTSAHQSSFRIQIYRIQIQNQIHGAVFPFVFYPVKPPKSVTMDSAPKPFTDVSIVMRSAGHSQISRIKYFKVLIQEMDLRLDLGFIYALTDLMTEAEVTENTEVELFHKDIEAFKEEYKTASLVDQSQVSLYEYFHISPIKLHLSVSLSSGREEAKDSKQNGGLIPVHSLNLLLKSIGATLTDVQDVVFKLAFFELNYQFHTTSDLQSEVIRHYSKQAIKQMYVLILGLDVLGNPFGLIREFSEGVEAFFYEPYQGAIQGPEEFVEGMALGLKALVGGAVGGLAGAASKITGAMAKGVAAMTMDEDYQQKRREAMNKQPAGFREGITRGGKGLVSGFVSGITGIVTKPIKGAQKGGAAGFFKGVGKGLVGAVARPTGGIIDMASSTFQGIKRATETSEVESLRPPRFFNEDGVIRPYRLRDGTGNQMLQVMENGRFAKYKYFTHVMINKTDMLMITRRGVLFVTKGTFGQLTCEWQYSFDEFTKEPFIVHGRRLRIEAKERVKSVFHAREFGKIINFKTPEDARWILTKLQEAREPSPSL
notes: VPS13A, human, fragment 4, residues 2554-3174; Subcloned into pcDNA3.1(+); The methods partly write '3×Flag−eGFP−VPS13A' without 'fragment 4'; also called Flag−GFP−VPS13A4; 3×Flag-VPS13A fragment 4

— paper PMC10911177, “Exploring the ATG9A interactome uncovers interaction with VPS13A” (Journal of cell science, 2024)
